# Experimental data taken from patent publication US20240199757A1.
# T1: murine NT5E expressed on 4T1 cells (murine) (UniProt Q61503)
# T1 sequence (looked up): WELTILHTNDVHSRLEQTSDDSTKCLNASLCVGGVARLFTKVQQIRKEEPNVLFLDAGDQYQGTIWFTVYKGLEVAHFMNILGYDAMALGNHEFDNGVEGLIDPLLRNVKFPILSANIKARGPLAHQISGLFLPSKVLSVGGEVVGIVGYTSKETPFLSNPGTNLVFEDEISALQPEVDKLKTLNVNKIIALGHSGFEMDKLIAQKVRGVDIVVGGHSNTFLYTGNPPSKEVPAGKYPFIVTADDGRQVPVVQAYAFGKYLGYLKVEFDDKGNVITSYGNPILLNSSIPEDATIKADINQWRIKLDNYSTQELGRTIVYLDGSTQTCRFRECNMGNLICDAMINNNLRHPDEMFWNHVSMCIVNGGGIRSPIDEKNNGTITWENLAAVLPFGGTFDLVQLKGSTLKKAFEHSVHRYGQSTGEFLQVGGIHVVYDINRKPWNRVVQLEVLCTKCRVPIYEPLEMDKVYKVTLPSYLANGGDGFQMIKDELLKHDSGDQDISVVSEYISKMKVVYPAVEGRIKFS
# T2: human NT5E expressed on MDA-MB-231 cells (human) (UniProt P21589)
# T2 sequence (looked up): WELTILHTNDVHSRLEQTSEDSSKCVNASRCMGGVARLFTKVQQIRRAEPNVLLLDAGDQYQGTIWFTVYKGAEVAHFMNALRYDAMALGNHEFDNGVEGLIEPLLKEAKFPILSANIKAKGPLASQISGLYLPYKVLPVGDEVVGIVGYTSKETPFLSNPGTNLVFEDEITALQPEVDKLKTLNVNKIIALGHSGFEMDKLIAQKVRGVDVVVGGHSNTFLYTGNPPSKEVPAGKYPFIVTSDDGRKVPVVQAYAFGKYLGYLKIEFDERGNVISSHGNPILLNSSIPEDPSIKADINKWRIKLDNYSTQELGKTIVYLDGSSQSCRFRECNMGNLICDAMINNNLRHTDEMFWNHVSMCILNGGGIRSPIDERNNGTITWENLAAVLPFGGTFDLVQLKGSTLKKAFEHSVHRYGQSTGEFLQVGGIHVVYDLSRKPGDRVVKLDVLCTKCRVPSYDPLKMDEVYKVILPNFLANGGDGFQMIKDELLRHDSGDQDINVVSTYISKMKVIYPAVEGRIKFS
# Columns and labels:
# [1] = molecular target: T1, murine NT5E expressed on 4T1 cells (murine); experiment: cell-based or functional assay
# [2] = molecular target: T2, human NT5E expressed on MDA-MB-231 cells (human); experiment: cell-based or functional assay
# [3] = molecular target: hNT5EFF (F417A/F500A mutant of hNT5E) (human); experiment: DSF thermal shift, 1.5-fold molar excess of Fab, 1 mM ATP (hNT5EFF alone 47° C.)
# [4] = molecular target: hNT5EFF (F417A/F500A mutant of hNT5E) (human); experiment: DSF thermal shift, 1.5-fold molar excess of Fab, no ATP (hNT5EFF alone 47° C.)
"IC50 of NT5E activity on 4T1 cells, with ATP [1] [nM]","IC50 of NT5E activity on MDA-MB-231 cells, no ATP [2] [nM]","IC50 of NT5E activity on MDA-MB-231 cells, with ATP [2] [nM]",TM of NT5E in the presence of the Fab [3] [° C.],TM of NT5E in the presence of the Fab [4] [° C.],Binder
12.7,6.9,2.5,–,–,"1789 AM39 IgG (antibody, V domains shown) VH: EVQLVESGGGLVQPGGSLRLSCAASGFNVSYSSIHWVRQAPGKGLEWVASIRGAGSDTRYADSVKGRFTISADTSKNTAYLQMNSLRAEDTAVYYCARNYWGWYPFYYFAFDYWGQGTLVTVSS VL: DIQMTQSPSSLSASVGDRVTITCRASQSVSSAVAWYQQKPGKAPKLLIYSASSLYSGVPSRFSGSRSGTDFTLTISSLQPEDFATYYCQQGWDYPITFGQGTKVEIKR"
8.8,5.4,1.9,–,–,"1789 AM42 IgG (antibody, V domains shown) VH: EVQLVESGGGLVQPGGSLRLSCAASGFNVSYSSIHWVRQAPGKGLEWVAKIRGGHQDTHYADSVKGRFTISADTSKNTAYLQMNSLRAEDTAVYYCARNYWGWYPFYYFAFDYWGQGTLVTVSS VL: DIQMTQSPSSLSASVGDRVTITCRASQSVSSAVAWYQQKPGKAPKLLIYSASSLYSGVPSRFSGSRSGTDFTLTISSLQPEDFATYYCQQGWDYPITFGQGTKVEIKR"
–,–,–,46,47,"1789 Fab (Fab, V domains shown) VH: EVQLVESGGGLVQPGGSLRLSCAASGFNVSYSSIHWVRQAPGKGLEWVASISSSSGYTYYADSVKGRFTISADTSKNTAYLQMNSLRAEDTAVYYCARNYWGWYPFYYFAFDYWGQGTLVTV VL: DIQMTQSPSSLSASVGDRVTITCRASQSVSSAVAWYQQKPGKAPKLLIYSASSLYSGVPSRFSGSRSGTDFTLTISSLQPEDFATYYCQQGWDYPITFGQGTKVEIKR"
9.1,5.6,2.3,–,–,"1789 AM32 IgG (antibody, V domains shown) VH: EVQLVESGGGLVQPGGSLRLSCAASGFNVSYSSIHWVRQAPGKGLEWVARIRGNEGDTYYADSVKGRFTISADTSKNTAYLQMNSLRAEDTAVYYCARNYWGWYPFYYFAFDYWGQGTLVTVSS VL: DIQMTQSPSSLSASVGDRVTITCRASQSVSSAVAWYQQKPGKAPKLLIYSASSLYSGVPSRFSGSRSGTDFTLTISSLQPEDFATYYCQQGWDYPITFGQGTKVEIKR"
